PMC3754917

Molecular target: transcobalamin saturated with vitamin B12 (holoTC) (human (endogenous in serum)) (UniProt P20062)
Assay: co-IP; serum samples of 6 pregnant women (weeks 15, 25 and 35) exposed to anti-TC coated magnetic beads; sCD320 measured by in-house sandwich ELISA before and after the precipitation

UniProt P20062, sequence (P20062 19-427): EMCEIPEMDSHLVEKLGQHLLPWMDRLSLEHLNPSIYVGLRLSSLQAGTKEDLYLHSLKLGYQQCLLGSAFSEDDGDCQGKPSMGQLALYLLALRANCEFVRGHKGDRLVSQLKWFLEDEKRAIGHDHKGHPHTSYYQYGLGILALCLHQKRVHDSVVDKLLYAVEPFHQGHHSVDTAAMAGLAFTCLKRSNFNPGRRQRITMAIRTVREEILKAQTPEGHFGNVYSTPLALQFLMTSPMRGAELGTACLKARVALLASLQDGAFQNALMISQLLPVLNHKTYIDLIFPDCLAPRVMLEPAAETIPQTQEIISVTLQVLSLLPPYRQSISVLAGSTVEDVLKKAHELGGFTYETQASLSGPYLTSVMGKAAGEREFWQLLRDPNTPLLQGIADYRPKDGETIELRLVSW

## soluble CD320 (sCD320), soluble receptor for transcobalamin-vitamin B12 (from UniProt Q9NPF0 36-229)
  percent of sCD320 removed by precipitation with antibodies against TC (week 15, median): 36%
  percent of sCD320 removed by precipitation with antibodies against TC (week 25, median): 36%
  percent of sCD320 removed by precipitation with antibodies against TC (week 35, median): 40%
  stoichiometry N: 1
